Test results as given in patent US20220195015A1 (published 2022).
Positions count from the first letter of the chain named.

B1: C044 (antibody, V domains shown)
VH: EVQLVESGGGLVQPGGSLRLSCAASGFTFSSYSMNWVRQAPGKGLEWVSYISSSSSTIYYADSVKGRFTISRDNAKNSLYLQMNSLRDEDTAVYYCAREAHDGALTDYGDYLNWFDPWGQGTLVTVSS
VL: SYELTQPPSVSVAPGKTARITCGGNNIGSKSVHWYQQKPGQAPVLVIYYDSDRPSGIPERFSGSNSGNTATLTISRVEAGDEADYYCQVWDSSSDHLYWVFGGGTKLTVL
B2: C045 (antibody, V domains shown)
VH: B1 VH with S31T, Y59H
VL: B1 VL with N25T, S31N, S51N, S92T, S93T, L97F
B3: C095 (antibody, V domains shown)
VH: VQLVEAGGGVVQPGRSLRLSCAASGLAFSIYGMHWVRQAPGKGLEWVAIVAQDGSKKYYADSVKGRFTISRDNSKNTLYLEMNSLRTEDTAVYYCVKEGRPSDTVVVVAFDYWGQGSLVTVSS
VL: DIQLTQSPSSLSASVGDRVTITCRASQSISNYLNWYQQKPGKAPKVIIYAASSLQSGVPSRFSGSGSGTDFTLTISSLQPEDFATYYCQQSHSIPRTFGQGTKVEIK
B4: C097 (antibody, V domains shown)
VH: QVQLQESGPGLVKPSQTLSLTCTVSGGSISSGPYYWSWIRQHPGKGLEWIGYIYYSGSTYYNPSLKSRVTISVDTSKKQFSLNLNSVTAADTAVYYCARVWQYYDSTGSFDYWGQGTLVTVSS
VL: DIVMTQSPLSLPVTPGEPASISCRSSRGLLHSNGYNYLDWYLQKPGQSPQLLIYLGSNRASGVPDRFSGSGSVTDFTLNISRVEAEDVGVYYCMQALQTPFTFGPGTKVDIK
B5: C043 (antibody, V domains shown)
VH: QLVQSGPEVKKPGTSVKVSCKASGFTFYNSAVQWVRQARGQRLEWVGWIVVGSGNTDYAQKFQERVTMTRDLSTNTAYMEVNSLRSEDTAVYYCAAPYCSGGTCLDGFDIWGQGTMVTVSS
VL: EIVLTQSPGTLSLSPGERGTLSCRASQSVRSNYLAWYKQRPGQAPRLLVYGASSRATGIPDRFSGSGSGTDFTLTISRLEPEDFAVYYCQQYGSSPWTFGQGTKVEIK
B6: C048 (antibody, V domains shown)
VH: VQLQESGPGLVKPSETLSLTCAVSGGSVSSGNYYWNWIRQPPGKGLEWIGYIYYSGSTNYNPSLKSRVTISVDTSKNQFSLKLNSVTAADTAVYHCARETYYYDSSGYYISDAFDIWGQGTMVTVSS
VL: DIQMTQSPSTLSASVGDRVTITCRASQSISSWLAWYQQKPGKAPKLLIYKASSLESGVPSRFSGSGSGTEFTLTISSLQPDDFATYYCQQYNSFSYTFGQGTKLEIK
B7: C098 (antibody, V domains shown)
VH: EVQLVESGGGLIQPGGSLRLSCAASGFTVSSNYMSWVRQAPGKGLEWVSVIYSGGSTYYADSVKGRFTISRDNSKNTLYLQMNSLRAEDTAVYYCARDLYSSGGTDIWGQGTMVTVSS
VL: not shown
B8: C099 (antibody, V domains shown)
VH: B7 VH with F27I, I51M, S53A, Y58F, N73D, Y79F, V92I
VL: EIVLTQSPGTLSLSPGERATLSCRASQSIGSSYLAWYQQKPGLAPRLLIYGASRRATGIPDKFSGSGSGADFTLTISRLEPEDFAVYYCQQYGSSPGTFGQGTKVEIK
B9: C044 (antibody, V domains shown)
VH: B1 VH
VL: B1 VL
B10: C045 (antibody, V domains shown)
VH: B1 VH with S31T, Y59H
VL: B1 VL with N25T, S31N, S51N, S92T, S93T, L97F
B11: C095 (antibody, V domains shown)
VH: B3 VH
VL: B3 VL
B12: C522 (antibody, V domains shown)
VH: EVQLVESGGGLIQPGGSLRLSCAASEFIVSRNYMSWVRQAPGKGLEWVSVIYSGGSTFYADSVKGRFTISRDESKNTLYLQMNSLRAEDTAIYYCARDRGGGILDYWGQGTLVTVS
VL: DIQMTQSPSSLSASVGDRVTITCQASQDINIFLNWYQQKPGKAPKLLIYDASSLETGVPSRFSGSGSGTDFTFTISSLQPEDFATYYCQQYGNLPKYTFGQGTKLEIK
B13: C097 (antibody, V domains shown)
VH: B4 VH
VL: B4 VL
B14: C096 (antibody, V domains shown)
VH: EVQLVESGGGLVKPGGSLRLSCVASGFTFRNAWMNWVRQAPGKGLEWVGRIKANSDGGTIDYAEPVQGRFTISREDSRNSLYLQMNSLKTEDTAVYYCTTGPQYDDFGHSYIVDSWGPGTLVTVSS
VL: DIVMTQSPLSLPVTLGEPASISCRSSQSLLHSNGFHFLEWYLQKPGQSPQLLIYVGSNRASGVPDRFSGSGSGTDFTLKISRVEAEDVGVYYCMQTLQTPLTFGGGTKVEIK
B15: C043 (antibody, V domains shown)
VH: B5 VH
VL: B5 VL
B16: C098 (antibody, V domains shown)
VH: B7 VH
VL: not shown
B17: C099 (antibody, V domains shown)
VH: B7 VH with F27I, I51M, S53A, Y58F, N73D, Y79F, V92I
VL: B8 VL

Biological target: SARS-CoV-2 spike protein on HIV-1 pseudotyped particles (SARS-CoV-2, UniProt P0DTC2 14-1254)
Assay: cell-based or functional assay

Binder | Neutralization IC50 [ng/mL] | Neutralization IC90 [ng/mL]
B1 | > 10000 | > 10000
B2 | > 10000 | > 10000
B3 | 11.3 | 52.6
B4 | 9.6 | 31.1
B5 | 10.6 | 74.4
B6 | 62.2 | 523
B7 | 479 | 4250
B8 | 27.2 | 86.1

Biological target: SARS-CoV-2 RBD (wild type) (SARS-CoV-2, UniProt P0DTC2 319-539)
Assay: ELISA on coated RBD

Binder | EC50 [ng/mL]
B9 | 1820
B10 | 7
B11 | 1.1
B12 | 0.93
B13 | 3.45
B14 | 5.18
B15 | 12.1
B16 | 7.7
B17 | 2.45
